Assays:
[1] = In vitro chromophore titration with DFHBI (fluorescence, single-binding site isotherm fit)
Method: Fluorescence endpoints were measured on a Synergy Neo2 hybrid multi-mode reader (BioTek) in flat bottom, black polystyrene, non-binding surface 96-well microplates (Corning 3650). In measuring chromophore-binding affinities (Fig. 1d, e), mFAP2, mFAP2a, and mFAP2b, and mFAP10 were produced by large-scale protein purification and SEC purification. Proteins were aliquoted in eight technical replicates in 200 μL final volumes to 20.0 nM final concentration in ten serial dilutions ( 10 dilution factor) of DFHBI starting from 31.6 μM DFHBI or 31.6 μM DFHBI-1T final concentrations, including an eleventh condition without chromophore. Fluorescence was excited at λex = 468 nm and fluorescence emission measured at λem = 530 nm. Background fluorescence endpoints of wells with identical chromophore concentrations but purified protein replaced with an identical volume of high-salt Tev cleavage buffer were measured, and fluorescence endpoints subtracted from those measured with protein. Background-subtracted data were averaged and the means normalized from 0 to 1 and fit to a single-binding site isotherm function using non-linear least squares fitting to obtain a fitted Kd value (Table 1), and the fit scaled to the maximum mean value (Fig. 1d, e).

[2] = Ca2+-responsive mFAP Ca2+ titrations; type: binding; details: Ca2+ titration with excess DFHBI
Method in brief: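 Purified protein at 500 nM with 5.00 μM DFHBI titrated over eleven 10-fold CaCl2 dilutions plus a no-Ca2+ condition in high-salt Tev cleavage buffer; endpoint fluorescence at ex 484/em 508 nm, protein-free background subtracted. Triplicate means fit to a single-site isotherm, Hill coefficient 1, for Kd.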

- higher affinity for DFHBI than DFHBI-1T [1]: ~ 6.1 fold
- weaker affinity for DFHBI than the initial mFAP2 design [1]: ~ 10 fold
- Ca2+-responsiveness / allostery between DFHBI and Ca2+ binding [2]: lack of Ca^2+-responsiveness
B1: mFAP2b: mFAP2.5 with V67I, "b" for bright (protein)
chain: SRAAQLLPGTWQVTMTNEDGQTSQGQWHFQPRSPYTMDIVAQGTISDGRPIVGYGKATVKTPDTLDIDITYPSLGNIKAQGQITMDSPTQFKWDATTKGENDFHGRLTGTLQRQE
